{"source": "paper PMC2710519", "tested_on": "RSC complex (17 subunits, 1.197 MDa);histone octamer (recombinant) (yeast;Xenopus laevis)", "experiment": "AFM", "conditions": "RSC:mononucleosome 1:3, AFM: 1 nM RSC with 21 nM 1 kbp DNA without ATP, or RSC:mononucleosome 1:3 for 30 min with or without 4 mM ATP or ATPgS, buffer, salt, pH and temperature not in …"}
{"substance": "601 mononucleosome with 236 and 252 bp arms (240/240, 635 bp)", "values": [{"measurement": "binding signal (% of substrate RSC-bound)", "setting": "4 mM ATP, 50% of RSC complexes nucleosome-bound", "value": 32}, {"measurement": "binding signal (% of substrate RSC-bound)", "setting": "4 mM ATPgS, 76% of RSC complexes on bare DNA arms", "value": 52}, {"measurement": "binding signal (% of substrate RSC-bound)", "setting": "no ATP, 72% of RSC complexes on bare DNA arms", "value": 25}]}
